Experiment [1] concerns the target T1, MBP-Brh2^106–1075 (Ustilago maydis, UniProt Q8NJ74 106-1075).
T1 sequence (looked up): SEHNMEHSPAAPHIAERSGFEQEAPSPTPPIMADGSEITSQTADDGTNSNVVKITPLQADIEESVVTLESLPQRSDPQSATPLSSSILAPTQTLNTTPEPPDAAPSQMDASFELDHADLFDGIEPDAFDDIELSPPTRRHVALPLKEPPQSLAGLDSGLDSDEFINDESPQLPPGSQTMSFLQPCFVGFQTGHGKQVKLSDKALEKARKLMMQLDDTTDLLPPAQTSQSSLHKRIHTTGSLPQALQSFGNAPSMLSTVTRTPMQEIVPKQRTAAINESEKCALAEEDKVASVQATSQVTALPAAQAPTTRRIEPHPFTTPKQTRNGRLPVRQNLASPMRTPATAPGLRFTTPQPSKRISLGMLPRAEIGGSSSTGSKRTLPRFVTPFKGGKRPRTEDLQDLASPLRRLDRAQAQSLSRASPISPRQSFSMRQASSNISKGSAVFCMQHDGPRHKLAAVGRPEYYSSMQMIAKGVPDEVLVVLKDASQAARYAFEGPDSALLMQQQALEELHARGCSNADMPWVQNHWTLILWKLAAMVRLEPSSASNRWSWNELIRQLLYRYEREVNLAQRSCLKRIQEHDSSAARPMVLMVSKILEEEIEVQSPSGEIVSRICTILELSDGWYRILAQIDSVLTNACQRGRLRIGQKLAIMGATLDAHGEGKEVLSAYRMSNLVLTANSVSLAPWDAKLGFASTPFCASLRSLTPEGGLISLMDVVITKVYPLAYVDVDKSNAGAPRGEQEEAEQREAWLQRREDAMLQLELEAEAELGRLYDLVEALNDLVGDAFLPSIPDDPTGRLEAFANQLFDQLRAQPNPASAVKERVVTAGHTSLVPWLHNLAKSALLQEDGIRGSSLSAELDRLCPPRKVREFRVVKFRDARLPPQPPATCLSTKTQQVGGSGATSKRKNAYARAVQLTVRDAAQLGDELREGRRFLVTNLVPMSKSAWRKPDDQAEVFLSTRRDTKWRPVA
Nature of the experiment: pull-down.

Experiment [2] addresses T1, MBP-Brh2^106–1075. Put plainly: pull-down. The source holds these as a separate data set.

B1: Rad51 (natural protein, UniProt Q99133 1-339, looked up)
chain: MSQNAQDPAQIGEDDMGEAFGPLPVSKLEEFGISSSDCKKLAESGYNTVESIAFTPKKQLLLVKGVSEAKADKILAEAARLVPMGFTTATEFHARRNELISITTGSKNLDAILGGGMETGSITELYGEFRTGKSQLCHTLAVTCQLPVDMGGGEGKCLYIDTENTFRPTRLLAVAERFGLNGEEVLDNVAYARAYNADHQLQLLMQASAMMAESRFSLLIVDSLTSLYRTDFSGRGELSARQMHLAKFLRGLMRLADEFGVAVVITNQVVAQVDGATAFTADAKKPIGGNIVAHASTTRLSLRKGRGNQRICRIADSPCLPEADAVFAIGPEGIIDPVD
Take B1: the “fold Rad51 associated relative to the Brh2/Dss1 heterodimer” value in experiment [1] was about 10 fold. The “stoichiometry N” value in experiment [2] was ~2.2 Rad51 per Brh2 (mol:mol).

The values above are taken from paper PMC5705077 (Biochemistry, 2017).
